Results: patent publication US20150105324A1 (INDIANA UNIVERSITY RESEARCH AND TECHNOLOGY, published 2015)

Biological target: biotinylated PSD95 (PDZ domains 1-3, residues 1-435 of human PSD95, fused to a biotin acceptor peptide) (human, UniProt P78352 1-435, biotin at its internal biotin acceptor site)
Sequence (P78352 1-435): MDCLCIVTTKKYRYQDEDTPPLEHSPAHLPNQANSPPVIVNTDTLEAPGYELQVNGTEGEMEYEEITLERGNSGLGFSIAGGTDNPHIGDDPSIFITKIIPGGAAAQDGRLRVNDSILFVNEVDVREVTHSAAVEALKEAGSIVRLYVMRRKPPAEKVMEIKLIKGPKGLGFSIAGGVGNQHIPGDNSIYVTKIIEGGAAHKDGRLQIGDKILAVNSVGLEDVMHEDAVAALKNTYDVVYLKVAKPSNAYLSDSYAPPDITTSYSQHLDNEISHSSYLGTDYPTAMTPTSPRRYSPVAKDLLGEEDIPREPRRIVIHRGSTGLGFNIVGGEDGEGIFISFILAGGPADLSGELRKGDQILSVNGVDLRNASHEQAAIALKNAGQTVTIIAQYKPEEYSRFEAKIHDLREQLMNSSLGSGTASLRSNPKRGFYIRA

B1: Tat-nNOS (1-299) fusion protein (other)
chain: YGRKKRRQRRRMEDHMFGVQQIQPNVISVRLFKRKVGGLGFLVKERVSKPPVIISDLIRGGAAEQSGLIQAGDIILAVNGRPLVDLSYDSALEVLRGIASETHVVLILRGPEGFTTHLETTFTGDGTPKTIRVTQPLGPPTKAVDLSHQPPAGKEQPLAVDGASGPGNGPQHAYDDGQEAGSLPHANGLAPRPPGQDPAKKATRVSLQGRGENNELLKEIEPVLSLLTSGSRGVKGGAPAKAEMKDMGIQVDRDLDGKSHKPLPLGVENDRVFNDLWGKGNVPVVLNNPYSEKEQPPTSGKQSPTKNGSP
IC50: 300 nM
